Target: pigeon ovomucoid (pigeon)
Experiment: BLI; BLItz system; biotinylated POVO; recombinant flagellin

Substance: recombinant flagellin of Bacillus cereus HN001 (WR52_08290) (natural protein)
- Kd: 3.69 nM
